Assay results as given in IntAct's records for PubMed 16407301.

B1: Mitogen-activated protein kinase kinase kinase 3 (Homo sapiens), Q99759 (parent)
chain: MDEQEALNSIMNDLVALQMNRRHRMPGYETMKNKDTGHSNRQSDVRIKFEHNGERRIIAFSRPVKYEDVEHKVTTVFGQPLDLHYMNNELSILLKNQDDLDKAIDILDRSSSMKSLRILLLSQDRNHNSSSPHSGVSRQVRIKASQSAGDINTIYQPPEPRSRHLSVSSQNPGRSSPPPGYVPERQQHIARQGSYTSINSEGEFIPETSEQCMLDPLSSAENSLSGSCQSLDRSADSPSFRKSRMSRAQSFPDNRQEYSDRETQLYDKGVKGGTYPRRYHVSVHHKDYSDGRRTFPRIRRHQGNLFTLVPSSRSLSTNGENMGLAVQYLDPRGRLRSADSENALSVQERNVPTKSPSAPINWRRGKLLGQGAFGRVYLCYDVDTGRELASKQVQFDPDSPETSKEVSALECEIQLLKNLQHERIVQYYGCLRDRAEKTLTIFMEYMPGGSVKDQLKAYGALTESVTRKYTRQILEGMSYLHSNMIVHRDIKGANILRDSAGNVKLGDFGASKRLQTICMSGTGMRSVTGTPYWMSPEVISGEGYGRKADVWSLGCTVVEMLTEKPPWAEYEAMAAIFKIATQPTNPQLPSHISEHGRDFLRRIFVEARQRPSAEELLTHHFAQLMY

Variants of: B1
Conditions: with mk03_human MAPK3, P27361
Sequence of mk03_human MAPK3, P27361 (P27361 whole entry): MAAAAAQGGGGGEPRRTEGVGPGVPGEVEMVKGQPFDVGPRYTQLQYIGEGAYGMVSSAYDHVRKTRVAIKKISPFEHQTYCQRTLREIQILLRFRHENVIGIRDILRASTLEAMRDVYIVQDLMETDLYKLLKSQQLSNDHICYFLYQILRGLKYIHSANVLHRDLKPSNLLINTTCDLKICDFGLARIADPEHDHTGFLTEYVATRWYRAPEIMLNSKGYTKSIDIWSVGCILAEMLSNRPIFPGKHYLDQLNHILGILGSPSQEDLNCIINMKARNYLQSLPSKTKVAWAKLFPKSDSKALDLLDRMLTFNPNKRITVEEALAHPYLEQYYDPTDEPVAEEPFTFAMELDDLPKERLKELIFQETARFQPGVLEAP

Effect of a mutation on the interaction, disrupting interaction:
S526A
T530A
K391M
